# Target: T1, FlhF-His6 (Campylobacter jejuni 81-176?) (UniProt O52908)
# T1 sequence: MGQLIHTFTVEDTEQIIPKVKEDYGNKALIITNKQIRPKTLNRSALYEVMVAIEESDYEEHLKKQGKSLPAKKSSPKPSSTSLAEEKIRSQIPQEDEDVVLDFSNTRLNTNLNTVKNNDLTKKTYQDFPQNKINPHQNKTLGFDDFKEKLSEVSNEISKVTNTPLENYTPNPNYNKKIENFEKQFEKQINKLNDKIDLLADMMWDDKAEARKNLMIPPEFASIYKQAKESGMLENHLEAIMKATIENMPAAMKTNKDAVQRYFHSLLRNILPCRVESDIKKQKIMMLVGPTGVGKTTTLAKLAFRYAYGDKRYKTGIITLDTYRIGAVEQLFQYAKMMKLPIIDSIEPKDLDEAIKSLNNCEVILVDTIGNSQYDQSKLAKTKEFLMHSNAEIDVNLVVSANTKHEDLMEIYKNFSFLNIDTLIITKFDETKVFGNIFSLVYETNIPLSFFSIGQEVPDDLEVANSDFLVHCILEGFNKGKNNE
# Test: EMSA
row,Sequence,binding
1,AAGCTCTATCAAAAGAAGTTTTAAAAACGCATCCTTATCTAAGGTAGCGTTTGGATTGCTCACTATTCCTGAGCTACTGCTTGAATCTGTTCTAGTTGTCCCACTAGTACTTCCTGAAGAAGTAGTACCTGAAGTTGTAGCAGTGGTATTTAAATTCCAATCCGATGATGATATCATTATAAACTCCTTTTTATTTAGTTTTTTATTATTTAAGCAATAAGTGTTCCAATTATCGTCGACCTGCAGGCA (double strand) [fliK promoter],no binding
2,AATTCATCCTAAGCCTTTTAAAAAATTTCTGCTATGGTATCCAATTTGCGCTTAATTTTGAATTTACTTTTTTTTAAGTATAATAAATTATCGCATTTTGTTCGCCAAATTCCACGGTAAAACGCAAGGGTAAAATTTTGACATAAGTTTCGCTTTGGGCATGTAATAAGTCAGTATTAACAATATCCTTAACACTGATTCTAGCTCCATCGTCGACCTGCAGGCA (double strand) [flgR promoter],no binding
3,ATAACGCCATTAATCCCCACTACACCACTTTTACACATATCTTCAGAAATAGCTCTTCTTTTCGTGATATTAACTACATTTAAAAATTTATCTACTCTCATAAAAGCAATTTTAGCAAAAAAAATCAATTTTTGGAACAAAATTTGCTTATGCCTTTGCTTTATTTTTTAAGAAAATAGCAAGTAAAAACTTTTCTTTAATGAAATTTGGATACAATTTTACAATTTTCAAATCTATTTTAACAAAGGATATCGTCGACCTGCAGGCA (double strand) [rpoN promoter],no binding
4,CTTTTAAATCCTTTCAAAATATTGCATCGAAAAGATTAAAGCAAGAAGTGTTCCAAGTTTTAATTTGATTAAAAATTTTAAAGCTTATAAATAAAAAGCCTAGTATTTAAACTAGGCTTGGATTTGTATAAATTGCAGCATTCTTAAAAGAATGTAAAGTGATTTTAAGATTTAACTATTGTAATCGTCGACCTGCAGGCA (double strand) [flaB promoter],no binding
5,TCATTTATCATTCCTCTAATAAAATCTTAAAATCATTCAAATCAAGTAAAAGCAAATTCTGTTCGCATATTTTATCAAATTCCTTGCTAAAACCATTTTTTGAGATTATAATGTAATAATTTGGAGCCAAATTTAAAGACTTTGCTTTTGATTTTAAAAGATTTAAAATATTTTTACAAATTTTTTTATTTTATCGTCGACCTGCAGGCA (double strand) [flgS promoter],binds
6,TGCCTGCAGGTCGACGATAAATATCGACCTAAAGCGTAAATTTTATACCTTAAAAAGAAAAAATTATAATTTTAACAGAGCTTTAGAAAAATTTGAAAAAATATTCAAATCATAAACATAATAACCGATTTATATAGAAAGTTAAGCAATTTTTAGATAAAATCCAAAGCTTATATAAATTTCAAGGATAATCAA (double strand) [rpoD promoter],binds
7,TGCCTGCAGGTCGACGATAAGAAATTTGGATCAACTAGCTTAAGCTTTTACGCTTCTTAACTTACTTGGAACACTTCTTGCTTGATCTATCATCAACAATAGATTAAAGGAAGAATCCA (double strand) [PflgI fragment 4],binds
8,TGCCTGCAGGTCGACGATAATTTAATCATTTTTGAACACCACTCAACCATAAAAACTCCCGAAAAAATCCAAAATTTTCAAAAAGTCAAAGAAAAGAAATTTGGATCAACTAGCTTAAGCTTTTACGCTTCTTAACTTACTTGGAACACTTCTTGCTTGATCTATCATCAACAATAGATTAAAGGAAGAATCCA (double strand) [PflgI fragment 1],binds
9,TGCCTGCAGGTCGACGATACCAGTTTCACCACTCGGGCTCATTTTTAAGATTTAAAGCTAAAATTATACTTTTTTAGGCTAAAAAATAACTTTAAAAATAAAAAGTATTTTCAAAAAGACGATATAAAATTATATAATTTAAATTTTTGGAACAGTTATTGCTTTTGTTTATTAGCAATATTTGAAAAGATTTTAACTTTAATACTTTAGAGGAAA (double strand) [flgL promoter],no binding
10,"TGCCTGCAGGTCGACGATAGAAAATTTAGATTTAAAGACTTTAAATTTAATCATTTTTGAACACCACTCAACCATAAAAACTCCCGAAAAAATCCAAAATTTTCAAAAAGTCAAAGAAAAGAAATTTGGATCAACTAGCTTAAGCTTTTACGCTTCTTAACTTACTTGGAACACTTCTTGCTTGATCTATCATCAACAATAGATTAAAGGAAGAATCCA (double strand) [flgI promoter (PflgI, 201 bp)]",binds
11,TGCCTGCAGGTCGACGATCAACCATAAAAACTCCCGAAAAAATCCAAAATTTTCAAAAAGTCAAAGAAAAGAAATTTGGATCAACTAGCTTAAGCTTTTACGCTTCTTAACTTACTTGGAACACTTCTTGCTTGATCTATCATCAACAATAGATTAAAGGAAGAATCCA (double strand) [PflgI fragment 2],binds
12,TGCCTGCAGGTCGACGATGCTTTTACGCTTCTTAACTTACTTGGAACACTTCTTGCTTGATCTATCATCAACAATAGATTAAAGGAAGAATCCA (double strand) [PflgI fragment 5],no binding
13,TGCCTGCAGGTCGACGATGGGTGTGATTTTGGTAATTTTCATTACACAAAAGACCAAAGCTTCATAAACTCCCAAAATACCTTTAAATTTTTTCTATAAATTTTTAAAAAATTTCAAAAGTTGGAACAGAACTTGCTTGTAAACTTCACATAAACGCAAAAGTTTTTTAAAGCCAAAGCGTTAAATTTTTTAAAGCAATATTTTATAAAGGATTTAAGA (double strand) [flgE promoter],no binding
14,TGCCTGCAGGTCGACGATTGCAGATGCAAACATTAAAAATCCTTTAAATTTAGAATTCTTAGGTCATTTAAGCGCTTCTAAAGATGTAAGTGGTAGTATTAAAAAAAGAACTTTATTTAGCGATGAAAACACAGCCTCAAGTGATGAGATTAAAGCCCTAGCTTCCAAGCTTTTATATAGATTGGAACGGAAAGTGCTTGATA (double strand) [fliA promoter],binds
15,TGGATTCTTCCTTTAATCTATTGTTGATGATAGATCAAGCAAGAAGTGTTCCAAGTAAGTTAAGAAGCGTAAAAGCTTAAGCTAGTTGATCCAAATTTCTTTTCTTTGACTTTTTGAAAATTTTGGATCGTCGACCTGCAGGCA (double strand) [PflgI fragment 3],binds
16,TTCTTTGACTTTTTGAAAATTTTGGATTTTTTCGGGAGTTTTTATGGTTGAGTGGTGTTCAAAAATGATTAAATTTAAAGTCTTTAAATCTAAATTTTCTATCGTCGACCTGCAGGCA (double strand) [PflgI fragment 6],no binding
17,TTTAAATCCTTTTAAATAATTTCAAACTCATCCATGAGCTTGTTAAATGCTATATCGTTACTTTTTTTAAAAATTTATACCTTAAACTAAAAAATTATAAATATCGCATTTTAATTGGAATCTGCAAATAAAAATTTCAAGCCACTGTTTATAAAATGTCAAGTATATTAATAAATACTCTCTTTCATCTTCAATTATCGTCGACCTGCAGGCA (double strand) [flaA promoter],no binding
